B1: OTU domain-containing protein 3 (Homo sapiens), Q5T2D3 (parent)
chain: MSRKQAAKSRPGSGSRKAEAERKRDERAARRALAKERRNRPESGGGGGCEEEFVSFANQLQALGLKLREVPGDGNCLFRALGDQLEGHSRNHLKHRQETVDYMIKQREDFEPFVEDDIPFEKHVASLAKPGTFAGNDAIVAFARNHQLNVVIHQLNAPLWQIRGTEKSSVRELHIAYRYGEHYDSVRRINDNSEAPAHLQTDFQMLHQDESNKREKIKTKGMDSEDDLRDEVEDAVQKVCNATGCSDFNLIVQNLEAENYNIESAIIAVLRMNQGKRNNAEENLEPSGRVLKQCGPLWEEGGSGARIFGNQGLNEGRTENNKAQASPSEENKANKNQLAKVTNKQRREQQWMEKKKRQEERHRHKALESRGSHRDNNRSEAEANTQVTLVKTFAALNI
partner: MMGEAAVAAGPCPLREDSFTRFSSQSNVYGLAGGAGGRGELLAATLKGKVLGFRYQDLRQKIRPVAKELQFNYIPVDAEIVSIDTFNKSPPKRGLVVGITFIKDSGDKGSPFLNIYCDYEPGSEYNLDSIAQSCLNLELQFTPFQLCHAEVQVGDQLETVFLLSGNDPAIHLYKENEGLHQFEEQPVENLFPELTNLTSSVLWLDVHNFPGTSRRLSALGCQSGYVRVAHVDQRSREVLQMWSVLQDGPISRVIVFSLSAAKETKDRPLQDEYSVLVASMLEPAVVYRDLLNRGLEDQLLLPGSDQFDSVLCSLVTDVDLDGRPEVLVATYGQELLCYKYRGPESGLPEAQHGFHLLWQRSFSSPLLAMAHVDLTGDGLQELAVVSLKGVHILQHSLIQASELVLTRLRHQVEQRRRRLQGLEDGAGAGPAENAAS

Variants of B1 are the subject of the experiment. Conditions: with kptn_human KPTN.
For the variant C76A, the “effect of a mutation on the interaction” value is “with no effect”.

For the origin of these results see IntAct's records for PubMed 38288086.
